system: ERα transcriptional activity in T47D breast cancer cells; assay: Cell based assay #2: ERE-luciferase reporter, E2-induced ERα activation by Ubc9 C93S; settings: Ubc9 C93S (SUMO-independent), E2 1 μM
Protocol: T47D cells (5×10^5) were plated in 6-well plates for 24 hours. The cells were washed twice in PBS followed by the addition of phenol red free DMEM containing 5% charcoal-stripped FBS for 48 hrs before transfection. The cells were transfected with 1 μg of each of the indicated plasmids (with a total of 2.5 μg DNA) using lipofectamine 2000 (Life Technology, USA). The cells were induced with 1 μM of E2 4 hours after transfections, harvested after an additional 40 hrs and assayed for luciferase activity following the manufacturer's instructions. Each set of experiments was performed in triplicate and repeated a least three times.

| Molecule | inhibition of E2-mediated ERα transcription activation by Ubc9/C93S |
| --- | --- |
| BRCA1 (aa 1-182): amino-terminal BRCA1 fragment, residues 1-182, with N-terminal FLAG sequence (protein, UniProt P38398 1-182, looked up, fragment, N-terminal FLAG tag) MDLSALRVEEVQNVINAMQKILECPICLELIKEPVSTKCDHIFCKFCMLKLLNQKKGPSQCPLCKNDITKRSLQESTRFSQLVEELLKIICAFQLDTGLEYANSYNFAKKENNSPEHLKDEVSIIQSMGYRNRAKRLLQSEPENPSLQETSLSVQLSNLGTVRTLRTKQRIQPQKTSVYIEL | inhibit E2-mediated ERα transcription activation by Ubc9/C93S |
| BRCA1 (aa 1-182) Mutant #1: BRCA1 1-182 fragment point mutant 1; apparently K109R (protein, UniProt P38398 1-182, looked up, fragment K109R) MDLSALRVEEVQNVINAMQKILECPICLELIKEPVSTKCDHIFCKFCMLKLLNQKKGPSQCPLCKNDITKRSLQESTRFSQLVEELLKIICAFQLDTGLEYANSYNFARKENNSPEHLKDEVSIIQSMGYRNRAKRLLQSEPENPSLQETSLSVQLSNLGTVRTLRTKQRIQPQKTSVYIEL | unlike their respective Mut #1 and Mut#4, inhibit |
| BRCA1 (aa 1-182) Mut#4: BRCA1 1-182 fragment point mutant 4; apparently C61G (protein, UniProt P38398 1-182, looked up, fragment C61G) MDLSALRVEEVQNVINAMQKILECPICLELIKEPVSTKCDHIFCKFCMLKLLNQKKGPSQGPLCKNDITKRSLQESTRFSQLVEELLKIICAFQLDTGLEYANSYNFAKKENNSPEHLKDEVSIIQSMGYRNRAKRLLQSEPENPSLQETSLSVQLSNLGTVRTLRTKQRIQPQKTSVYIEL | unlike their respective Mut #1 and Mut#4, inhibit |
